Columns and labels:
[1] = biological target: […] presented by HLA-A*0201 (EBV; human); experiment: cell-based or functional assay
[2] = biological target: […] presented by HLA-A*0201 (HCMV; human); experiment: cell-based or functional assay

## TCR recognizing […] presented by A*0201 (PDB #3REV)
[1]
  luciferase induction, reporter T cells + U-87 APCs, short cassette 9AA (relative to uninfected controls): 12
  luciferase induction, reporter T cells + U-87 APCs, short cassette 17AA (relative to uninfected controls): 10.3
  luciferase induction, reporter T cells + U-87 APCs, short cassette 25AA (relative to uninfected controls): 14.6
  luciferase induction, reporter T cells + U-87 APCs, short cassette AAY (relative to uninfected controls): 11.3
  luciferase induction, reporter T cells + U-87 APCs, short cassette DPP (relative to uninfected controls): 1.1
  luciferase induction, reporter T cells + U-87 APCs, short cassette RR (relative to uninfected controls): 8.5
  luciferase induction, reporter T cells + U-87 APCs, targeting cassette A: 6.1
  luciferase induction, reporter T cells + U-87 APCs, targeting cassette B: 6.3
  luciferase induction, reporter T cells + U-87 APCs, targeting cassette C: 7.6
  luciferase induction, reporter T cells + U-87 APCs, targeting cassette D: 7
  luciferase induction, reporter T cells + U-87 APCs, targeting cassette E: 5.9
  luciferase induction, reporter T cells + U-87 APCs, targeting cassette F: 3.7
  luciferase induction, reporter T cells + U-87 APCs, targeting cassette G: 7.6
  luciferase induction, reporter T cells + U-87 APCs, targeting cassette H: 5.4
  luciferase induction, reporter T cells + U-87 APCs, targeting cassette J: 6.4
  luciferase induction, reporter T cells, short cassette AAY: 11.3

## TCR recognizing […] presented by A*0201 (PDB #5D2N)
[2]
  luciferase induction, reporter T cells + U-87 APCs, short cassette 9AA (relative to uninfected controls): 33.6
  luciferase induction, reporter T cells + U-87 APCs, short cassette 17AA (relative to uninfected controls): 42.8
  luciferase induction, reporter T cells + U-87 APCs, short cassette 25AA (relative to uninfected controls): 42.3
  luciferase induction, reporter T cells + U-87 APCs, short cassette AAY (relative to uninfected controls): 24.5
  luciferase induction, reporter T cells + U-87 APCs, short cassette DPP (relative to uninfected controls): 0.9
  luciferase induction, reporter T cells + U-87 APCs, short cassette RR (relative to uninfected controls): 21.7
  luciferase induction, reporter T cells + U-87 APCs, targeting cassette A: 32.5
  luciferase induction, reporter T cells + U-87 APCs, targeting cassette B: 31.8
  luciferase induction, reporter T cells + U-87 APCs, targeting cassette C: 29.1
  luciferase induction, reporter T cells + U-87 APCs, targeting cassette D: 29.1
  luciferase induction, reporter T cells + U-87 APCs, targeting cassette E: 28.4
  luciferase induction, reporter T cells + U-87 APCs, targeting cassette F: 20.4
  luciferase induction, reporter T cells + U-87 APCs, targeting cassette G: 35
  luciferase induction, reporter T cells + U-87 APCs, targeting cassette H: 30.3
  luciferase induction, reporter T cells + U-87 APCs, targeting cassette J: 38.1
  luciferase induction, reporter T cells, short cassette AAY: 24.5

Reference: patent US20230020089A1
